Biological target: N-terminal soluble domain of Bacteroides fragilis FeoAB fusion protein (BfNFeoAB) (Bacteroides fragilis)
Experiment: SEC

In the case of “N-terminal soluble domain of Bacteroides fragilis FeoAB fusion protein (BfNFeoAB) (domain or fragment)”, the stoichiometry N is reported as 3.

Reference: paper doi:10.1101/2021.09.29.462438
